Target: HA-APP (full-length, APP695 spliced isoform) (UniProt P05067)
Test: ELISA

Substance: MDGA1 MAM-Fc (recombinant MDGA1 MAM domain fused to Fc) (from UniProt Q8NFP4 751-918) (Fc fusion)
- Kd: 41.3 nM

Reference: paper PMC8795569
